Data taken from patent US6555322B1, “α2-macroglobulin receptor as a receptor for CTGF” (FibroGen, Inc., priority 1999, dated 2003).

How the values were obtained:
MG63 cells [1] = assay: Internalization and degradation time course of 125I-rhCTGF after TGF-β treatment; type: cell-based, human
Procedure: To examine whether LRP function was altered by TGF-β treatment, the following experiments were conducted. MG63 cells were plated at 2.5×10^4 cells/cm^2 in MEM with 10% FBS. The following day, the cells were rinsed with MEM containing 0.5% MEM and incubated in this low serum medium with or without 20 ng/ml of TGF-β2. At 24 or 48 hours the cells were rinsed twice with binding medium, then incubated at 4° C. for 3 hours with 0.2 nM ^125I-rhCTGF. After incubation, the cells were rinsed 4 times with binding buffer at 4° C., then fresh binding buffer pre-warmed to 37° C. was added and the cells continued incubation at 37° C. At time points of 0, 15, 30, 60, 120 and 180 min, the media were collected and processed by precipitation with 10% TCA. The cell layer was processed by trypsination of the cells. Pellets and supernatants were separated and counted for each point.

MG63 cells [2] = assay: Protein synthesis in the presence of PEA as measure of LRP internalization activity; type: cell-based, human; conditions: 20 ng/ml TGF-β for 48 hours, 14C-amino acid pulse
Procedure: Pseudomonas exotoxin A (PEA) is a ligand for LRP, and following internalization is degraded in lysosomes. One of the degradation products contains PEA domain III, which promotes ADP-ribosylation of elongation factor-2, inhibiting protein synthesis. Protein synthesis in the presence of various concentrations of PEA was used to measure the internalization activity of LRP. To test whether TGF-β altered LRP activity for PEA internalization, MG63 cells were treated with 20 ng/ml TGF-β for 48 hours, then treated with various concentrations of PEA. After 2 hours, protein synthesis was monitored with an overnight pulse of ^14C-amino acids. The cell layers were extracted with 10% trichloroacetic acid and counted.

MG63 cells [3] = assay: Internalization and degradation of 125I-rhCTGF during binding, with additives; type: cell-based, human; conditions: two hour incubation at 37° C.
LRP receptor = biological target: T1, LRP receptor (Mus musculus, UniProt Q91ZX7); assay: Competitive binding and cross-linking of LRP ligands with 125I-CTGF on BMS-2 cells; parameters: species or system murine; conditions: 50 pM 125I-CTGF; CTGF 21.5 nM, BP5 201-218 50 μg/ml, LF 25 μg/ml, apo E 20 μg/ml, LpL 20 μg/ml
T1 construct: endogenous in cells; host or cells: BMS2 (BMS-2) murine bone marrow stromal cells
T1 sequence (Q91ZX7 20-4545): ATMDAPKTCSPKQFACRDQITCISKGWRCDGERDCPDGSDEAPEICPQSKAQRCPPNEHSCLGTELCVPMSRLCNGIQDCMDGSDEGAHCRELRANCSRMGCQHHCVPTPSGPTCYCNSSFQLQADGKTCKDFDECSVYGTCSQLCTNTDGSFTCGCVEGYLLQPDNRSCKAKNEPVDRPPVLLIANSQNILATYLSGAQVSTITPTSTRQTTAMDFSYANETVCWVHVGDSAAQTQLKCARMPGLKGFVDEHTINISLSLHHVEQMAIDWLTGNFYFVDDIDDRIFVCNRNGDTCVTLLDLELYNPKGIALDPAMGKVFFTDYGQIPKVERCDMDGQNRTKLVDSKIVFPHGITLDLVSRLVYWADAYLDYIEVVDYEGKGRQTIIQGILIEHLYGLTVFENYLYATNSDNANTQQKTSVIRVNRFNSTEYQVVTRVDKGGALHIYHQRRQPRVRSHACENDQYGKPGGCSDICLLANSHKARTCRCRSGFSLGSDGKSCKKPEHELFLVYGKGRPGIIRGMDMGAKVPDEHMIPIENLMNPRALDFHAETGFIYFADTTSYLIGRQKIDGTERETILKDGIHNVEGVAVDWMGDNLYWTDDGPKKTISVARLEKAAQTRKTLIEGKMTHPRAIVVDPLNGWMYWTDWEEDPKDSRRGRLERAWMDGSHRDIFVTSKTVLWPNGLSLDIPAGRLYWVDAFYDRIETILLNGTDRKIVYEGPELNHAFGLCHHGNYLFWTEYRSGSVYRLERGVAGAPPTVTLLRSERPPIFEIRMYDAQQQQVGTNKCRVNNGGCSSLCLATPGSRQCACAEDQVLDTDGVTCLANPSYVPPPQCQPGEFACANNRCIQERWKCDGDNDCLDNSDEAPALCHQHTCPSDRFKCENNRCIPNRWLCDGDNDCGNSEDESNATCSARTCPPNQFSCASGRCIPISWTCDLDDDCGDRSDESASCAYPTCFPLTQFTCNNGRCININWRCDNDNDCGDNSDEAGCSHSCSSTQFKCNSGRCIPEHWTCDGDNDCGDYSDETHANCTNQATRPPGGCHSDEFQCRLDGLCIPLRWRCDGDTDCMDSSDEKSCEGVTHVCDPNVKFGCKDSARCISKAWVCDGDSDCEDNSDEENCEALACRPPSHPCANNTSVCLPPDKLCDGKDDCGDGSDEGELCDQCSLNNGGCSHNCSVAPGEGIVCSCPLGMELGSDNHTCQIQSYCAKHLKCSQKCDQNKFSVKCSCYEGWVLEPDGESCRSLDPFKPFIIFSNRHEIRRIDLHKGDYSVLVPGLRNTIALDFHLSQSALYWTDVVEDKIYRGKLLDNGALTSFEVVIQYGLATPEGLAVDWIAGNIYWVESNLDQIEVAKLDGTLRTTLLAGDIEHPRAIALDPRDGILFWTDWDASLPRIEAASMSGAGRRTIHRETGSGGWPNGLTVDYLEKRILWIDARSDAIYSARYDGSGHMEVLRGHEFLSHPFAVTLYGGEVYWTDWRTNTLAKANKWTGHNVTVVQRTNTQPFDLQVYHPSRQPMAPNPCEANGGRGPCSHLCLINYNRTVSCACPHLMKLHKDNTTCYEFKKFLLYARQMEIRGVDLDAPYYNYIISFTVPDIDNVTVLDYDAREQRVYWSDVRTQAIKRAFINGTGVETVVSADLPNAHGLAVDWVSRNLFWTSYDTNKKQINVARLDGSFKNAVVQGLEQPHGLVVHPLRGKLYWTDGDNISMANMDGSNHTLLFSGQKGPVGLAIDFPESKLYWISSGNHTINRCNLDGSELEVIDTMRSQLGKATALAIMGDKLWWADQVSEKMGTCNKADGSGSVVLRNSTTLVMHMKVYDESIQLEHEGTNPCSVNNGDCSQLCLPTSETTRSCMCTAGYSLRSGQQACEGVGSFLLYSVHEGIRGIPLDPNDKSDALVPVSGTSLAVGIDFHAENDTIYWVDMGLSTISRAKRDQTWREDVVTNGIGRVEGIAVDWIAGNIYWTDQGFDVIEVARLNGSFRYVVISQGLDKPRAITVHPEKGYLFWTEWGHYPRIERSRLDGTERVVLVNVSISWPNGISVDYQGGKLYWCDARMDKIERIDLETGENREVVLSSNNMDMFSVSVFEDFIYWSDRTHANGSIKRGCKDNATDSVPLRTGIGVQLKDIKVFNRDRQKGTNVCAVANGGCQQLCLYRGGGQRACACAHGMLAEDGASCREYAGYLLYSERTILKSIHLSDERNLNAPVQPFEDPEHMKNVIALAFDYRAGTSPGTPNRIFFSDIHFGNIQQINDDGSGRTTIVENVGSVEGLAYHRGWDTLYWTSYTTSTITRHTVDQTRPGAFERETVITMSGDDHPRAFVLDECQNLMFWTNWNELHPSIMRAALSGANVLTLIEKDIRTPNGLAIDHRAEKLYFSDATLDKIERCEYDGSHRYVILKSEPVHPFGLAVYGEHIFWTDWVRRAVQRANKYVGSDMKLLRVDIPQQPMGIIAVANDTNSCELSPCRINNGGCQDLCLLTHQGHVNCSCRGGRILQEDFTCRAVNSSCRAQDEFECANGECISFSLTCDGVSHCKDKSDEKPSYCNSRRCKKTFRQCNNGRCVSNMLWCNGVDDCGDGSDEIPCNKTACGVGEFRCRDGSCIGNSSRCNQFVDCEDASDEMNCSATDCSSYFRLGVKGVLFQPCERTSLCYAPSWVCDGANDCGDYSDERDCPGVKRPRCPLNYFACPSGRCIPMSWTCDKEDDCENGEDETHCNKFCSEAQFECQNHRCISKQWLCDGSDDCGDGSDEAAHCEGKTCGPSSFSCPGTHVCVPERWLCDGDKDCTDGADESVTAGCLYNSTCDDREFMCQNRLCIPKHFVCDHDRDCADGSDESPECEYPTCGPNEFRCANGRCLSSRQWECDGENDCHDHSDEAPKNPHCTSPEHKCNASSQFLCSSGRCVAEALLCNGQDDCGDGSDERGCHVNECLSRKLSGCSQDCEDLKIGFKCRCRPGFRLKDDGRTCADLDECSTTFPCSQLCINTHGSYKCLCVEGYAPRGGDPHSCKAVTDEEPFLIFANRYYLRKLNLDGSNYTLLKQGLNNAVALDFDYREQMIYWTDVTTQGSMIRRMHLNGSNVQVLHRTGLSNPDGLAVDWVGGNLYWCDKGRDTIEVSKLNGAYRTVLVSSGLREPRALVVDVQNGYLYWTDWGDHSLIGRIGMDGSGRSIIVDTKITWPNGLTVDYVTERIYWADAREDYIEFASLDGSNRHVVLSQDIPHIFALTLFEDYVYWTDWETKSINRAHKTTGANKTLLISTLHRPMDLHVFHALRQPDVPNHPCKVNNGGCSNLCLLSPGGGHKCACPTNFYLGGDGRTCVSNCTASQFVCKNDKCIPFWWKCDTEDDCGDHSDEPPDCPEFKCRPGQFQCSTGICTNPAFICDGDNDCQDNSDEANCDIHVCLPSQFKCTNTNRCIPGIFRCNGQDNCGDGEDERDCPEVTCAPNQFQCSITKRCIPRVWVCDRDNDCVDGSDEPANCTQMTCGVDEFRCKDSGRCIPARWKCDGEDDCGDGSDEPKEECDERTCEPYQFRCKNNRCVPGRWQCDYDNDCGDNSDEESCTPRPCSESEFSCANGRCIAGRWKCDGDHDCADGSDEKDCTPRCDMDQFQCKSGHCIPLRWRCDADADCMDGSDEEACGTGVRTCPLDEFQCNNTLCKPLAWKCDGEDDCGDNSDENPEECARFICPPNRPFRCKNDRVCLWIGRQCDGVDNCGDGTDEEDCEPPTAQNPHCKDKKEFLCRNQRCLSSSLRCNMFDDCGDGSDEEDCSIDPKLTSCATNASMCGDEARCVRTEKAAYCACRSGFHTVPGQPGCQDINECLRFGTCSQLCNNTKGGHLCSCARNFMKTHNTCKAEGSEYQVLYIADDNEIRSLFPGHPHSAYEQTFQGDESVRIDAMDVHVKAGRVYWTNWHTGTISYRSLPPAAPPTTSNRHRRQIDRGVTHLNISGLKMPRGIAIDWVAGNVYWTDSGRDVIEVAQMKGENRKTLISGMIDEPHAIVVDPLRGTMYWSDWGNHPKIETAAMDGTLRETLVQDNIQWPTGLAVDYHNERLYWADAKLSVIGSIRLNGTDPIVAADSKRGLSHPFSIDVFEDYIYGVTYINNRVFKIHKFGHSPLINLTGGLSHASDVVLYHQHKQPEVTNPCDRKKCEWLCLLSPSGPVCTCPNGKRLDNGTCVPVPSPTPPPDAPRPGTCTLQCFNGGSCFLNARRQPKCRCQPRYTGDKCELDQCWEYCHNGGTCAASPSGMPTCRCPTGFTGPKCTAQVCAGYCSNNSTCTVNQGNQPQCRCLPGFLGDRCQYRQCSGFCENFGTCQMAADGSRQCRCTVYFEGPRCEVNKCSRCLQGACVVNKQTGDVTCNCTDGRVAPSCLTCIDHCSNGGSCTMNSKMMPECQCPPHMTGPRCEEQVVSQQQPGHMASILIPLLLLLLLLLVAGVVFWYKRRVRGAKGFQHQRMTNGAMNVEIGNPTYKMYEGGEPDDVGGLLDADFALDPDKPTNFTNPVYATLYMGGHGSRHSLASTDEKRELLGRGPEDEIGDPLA
Procedure: To examine whether ligands known to bind to LRP inhibit CTGF binding, BMS-2 cells were labeled with 50 pM ^125I-CTGF in the presence or absence of unlabeled ligand (CTGF: 21.5 nM; BP5^201-218: 50 μg/ml or […] (Campbell and Andress, 1997, Am. J. Physiol., 273:E1005-13); lactoferrin (LF): 25 μg/ml or 250 nM; apo E: 20 μg/ml or 574 nM; lipoprotein lipase (LpL): 20 μg/ml or 400 nM). The cells were cross-linked and the receptor complexes were solubilized, processed on SDS-PAGE and visualized by autoradiography.

MG63 cells [4] = assay: Internalization and degradation kinetics of 125I-CTGF with heparin or lactoferrin; type: cell-based, human
Procedure: Experiments were performed in which the internalization and degradation kinetics of CTGF were followed in the presence or absence of a known LRP ligand, lactoferrin. Kinetics were followed in the presence or absence of 3 μg/ml heparin or lactoferrin. ^125I-CTGF was bound to MG63 cells at 4° C. and free CTGF was removed by washing the cells. Fresh medium was placed on the cells, and the cells were transferred to 37° C. At each time point, the medium was removed and TCA precipitated. Degraded ^125I-CTGF was quantified by measuring the cpm in the non-precipitable fraction (see FIG. 17). In parallel experiments, ^125I-CTGF was bound to MG63 cells at 4° C. and free CTGF was removed by washing the cells. Fresh medium was placed on the cells, and they were transferred to 37° C. At each time point, the cell layer was removed by extensive trypsinization at 4° C. The cells were centrifuged and the cpm associated with the pellet, the internalized fraction, was determined (see FIG. 18).

[5] = biological target: T2, high Mr CTGF binding protein on BMS-2 cells (Mus musculus, UniProt Q91ZX7); assay: Binding analysis of 125I-CTGF competition with LRP ligands on BMS-2 cells; parameters: species or system murine; conditions: 0.1 nM 125I-CTGF
T2 construct: endogenous in cells; host or cells: BMS2 (BMS-2) murine bone marrow stromal cells
T2 sequence (Q91ZX7 20-4545): as above
Procedure: BMS-2 cells were incubated with 0.1 nM ^125I-CTGF in the presence of unlabeled CTGF, recombinant human apoE, low density lipoprotein purified from human plasma (LDL), or lipoprotein lipase purified from bovine milk (LpL).

[6] = biological target: T3, CTGF receptor on MG63 cells (Homo sapiens, UniProt Q07954); assay: Specificity of CTGF binding in the presence of known growth factors, cross-linking; conditions: 200 pM 125I-CTGF, growth factor at 1 μg/ml
T3 construct: endogenous in cells; host or cells: MG63 human osteosarcoma cells
Procedure: The specificity of CTGF binding to the CTGF receptor was analyzed by performing an affinity binding experiment in the presence of a number of known growth factors. MG63 cells were labeled with 200 pM ^125I-CTGF in the presence of the indicated growth factor at 1 μg/ml. The cells were cross-linked with S-SMCC and the cell lysates were reduced prior to SDS-PAGE.

LRP = assay: Cross-linking and equilibrium binding of 125I-rhCTGF on MEF1, PEA 10 and PEA 13 cells; parameters: species or system murine
Procedure: Three cell lines useful for a complete genetic system for the study of LRP function were generated by Willnow and Herz (1994, J. Cell Sci. 103:719-726) and obtained from the American Type Culture Collection (ATCC). The wild type line, MEF1, are fibroblasts originating from murine embryos and are homozygous positive for LRP expression. Fibroblasts that carry one or two copies of the defective LRP allele from hybrid embryos (see Herz et al.(1992) Cell. 71:411-21) were cultured in Pseudomonas exotoxin A (PEA) and the resistant clones, PEA 10 and PEA 13, which are heterozygous and homozygous, respectively, for LRP deficiency. Resistance to Pseudomonas exotoxin A by PEA 10 and PEA 13 cell lines, as well as sensitivity by MEF1 cells, was confirmed by growth in 30 ng/ml Pseudomonas exotoxin A after receipt from ATCC.
The three cell lines were cultured and plated for affinity binding with radiolabeled CTGF, cross-linking and gel analysis. Specifically, cross-linking of ^125I-rhCTGF to monolayers of MEF1, PEA 10 and PEA 13 cells were carried out as follows: Cells plated in 6-well dishes were incubated at 4° C. with 0.2 nM ^125I-rhCTGF in the presence (+) or absence (−) of a 200 fold excess of unlabeled rhCTGF in a binding buffer of PBS, 0.2% BSA, 0.02% sodium azide. After a 3 hour period of labeling, cells were cross-linked with 0.5 mM BS^3 for 15 minutes at room temperature. […]

CTGF receptor = assay: Cell survey of CTGF cross-linked receptor complexes; type: binding
[7] = 20 ng/ml TGF-β2, 48 hour exposure

B1: transforming growth factor beta (protein)
chain: ALDAAYCFRNVQDNCCLRPLYIDFKRDLGWKWIHEPKGYNANFCAGACPYLWSSDTQHSRVLSLYNTINPEASASPCCVSQDLEPLTILYYIGKTPKIEQLSNMIVKSCKCS
notes: growth factor, 20 ng/ml TGF-β2 used to treat MG63 cells
degradation of 125I-CTGF, control cells relative to TGF-β treated cells (MG63 cells [1]; [7]): at least 3 fold | internalization of CTGF in TGF-β treated cells (MG63 cells [1]; [7]): more modest internalization | internalization and degradation of CTGF by CTGF receptor (LRP), lower in TGF-β treated cells (MG63 cells [1]; TGF-β treated versus control cells): about 3 fold | sensitivity to PEA, TGF-β treated cells less sensitive than control cells (MG63 cells [2]): about 3 fold | CTGF degraded, TGF-β treated cells (MG63 cells [3]; 48 hours post-TGF-β exposure): 400 fmol | CTGF specifically internalized, TGF-β treated cells (MG63 cells [3]; 48 hours post-TGF-β exposure): about 150 fmoles

B2: lactoferrin (protein, UniProt P02788 20-710, looked up)
Lactotransferrin: GRRRSVQWCAVSQPEATKCFQWQRNMRKVRGPPVSCIKRDSPIQCIQAIAENRADAVTLDGGFIYEAGLAPYKLRPVAAEVYGTERQPRTHYYAVAVVKKGGSFQLNELQGLKSCHTGLRRTAGWNVPIGTLRPFLNWTGPPEPIEAAVARFFSASCVPGADKGQFPNLCRLCAGTGENKCAFSSQEPYFSYSGAFKCLRDGAGDVAFIRESTVFEDLSDEAERDEYELLCPDNTRKPVDKFKDCHLARVPSHAVVARSVNGKEDAIWNLLRQAQEKFGKDKSPKFQLFGSPSGQKDLLFKDSAIGFSRVPPRIDSGLYLGSGYFTAIQNLRKSEEEVAARRARVVWCAVGEQELRKCNQWSGLSEGSVTCSSASTTEDCIALVLKGEADAMSLDGGYVYTAGKCGLVPVLAENYKSQQSSDPDPNCVDRPVEGYLAVAVVRRSDTSLTWNSVKGKKSCHTAVDRTAGWNIPMGLLFNQTGSCKFDEYFSQSCAPGSDPRSNLCALCIGDEQGENKCVPNSNERYYGYTGAFRCLAENAGDVAFVKDVTVLQNTDGNNNEAWAKDLKLADFALLCLDGKRKPVTEARSCHLAMAPNHAVVSRMDKVERLKQVLLHQQAKFGRNGSDCPDKFCLFQSETKNLLFNDNTECLARLHGKTTYEKYLGPQYVAGITNLKKCSTSPLLEACEFLRK
notes: known LRP ligand
competing the binding to the LRP receptor (LRP receptor): very effective in competing | rate of degradation of CTGF (MG63 cells [4]; 3 μg/ml heparin or lactoferrin): reduced the rate | rate of internalization of CTGF (MG63 cells [4]; 3 μg/ml heparin or lactoferrin): reduced the rate

B3: lipoprotein lipase (protein)
chain: DRITGGKDFRDIESKFALRTPEDTAEDTCHLIPGVTESVANCHFNHSSKTFVVIHGWTVTGMYESWVPKLVAALYKREPDSNVIVVDWLSRAQQHYPVSAGYTKLVGQDVAKFMNWMADEFNYPLGNVHLLGYSLGAHAAGIAGSLTNKKVNRITGLDPAGPNFEYAEAPSRLSPDDADFVDVLHTFTRGSPGRSIGIQKPVGHVDIYPNGGTFQPGCNIGEALRVIAERGLGDVDQLVKCSHERSVHLFIDSLLNEENPSKAYRCNSKEAFEKGLCLSCRKNRCNNMGYEINKVRAKRSSKMYLKTRSQMPYKVFHYQVKIHFSGTESNTYTNQAFEISLYGTVAESENIPFTLPEVSTNKTYSFLLYTEVDIGELLMLKLKWISDSYFSWSNWWSSPGFDIGKIRVKAGETQKKVIFCSREKMSYLQKGKSPVIFVKCHDKSLNRKSG
notes: lipoprotein lipase purified from bovine milk, known LRP ligand
competition with 125I-CTGF [5]: competed | competing the binding to the LRP receptor (LRP receptor): very effective in competing

B4: connective tissue growth factor (protein)
chain: QNCSGPCRCPDEPAPRCPAGVSLVLDGCGCCRVCAKQLGELCTERDPCDPHKGLFCHFGSPANRKIGVCTAKDGAPCIFGGTVYRSGESFQSSCKYQCTCLDGAVGCMPLCSMDVRLPSPDCPFPRRVKLPGKCCEEWVCDEPKDQTVVGPALAAYRLEDTFGPDPTMIRANCLVQTTEWSACSKTCGMGISTRVTNDNASCRLEKQSRLCMVRPCEADLEENIKKGKKCIRTPKISKPIKFELSGCTSMKTYRAKFCGVCTDGRCCTPHRTTTLPVEFKCPDGEVMKKNMMFIKTCACHYNCPGDNDIFESLYYRKMYGDMA
notes: recombinant human CTGF produced in baculovirus-infected Hi 5 insect cells, also used radioiodinated
competition for CTGF binding to the cell surface [6]: effectively competed | cross-linked signal co-migrating with the complex, PEA 13 cells (LRP; 0.2 nM 125I-rhCTGF, BS3, overexposed autoradiograph): no signal | CTGF binding on PEA 13 cells (LRP; PEA 13, homozygous LRP deficient): no binding was detected | competing the binding to the LRP receptor (LRP receptor): most effective | time of internalization of CTGF (MG63 cells [4]; 37° C. after binding at 4° C.): ≤ 30 min | cross-linking of CTGF to CHO and MLEC cells (CTGF receptor): did not appear to cross-link | CTGF specifically internalized, control cells (MG63 cells [3]; 0.2 nM 125I-rhCTGF, no TGF-β): approximately 260 fmoles CTGF/mg cell protein | CTGF degraded, control cells (MG63 cells [3]; no TGF-β): About 1000 fmoles/mg cell protein
